These results are taken from PMC4385409.

This experiment addresses cytoplasmic dynein-1 heavy chain (bovine) (bovine). Put plainly: negative stain EM.

Broadly, the stoichiometry N is the number of molecules, sites or subunits per partner or assembly. Turning to “cytoplasmic dynein-1 heavy chain (bovine) (natural protein)”, the stoichiometry N came to 2.
